± gives the uncertainty stated by the source.
Assay: amyloid nucleation score (Sup35N fusion, yeast selection) (log enrichment); library NNK1; higher = more nucleation; inactive = no reads after selection
Method in brief: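 The nucleation score is the log enrichment of output over input reads, calculated with DiMSum and centred on the mode score of non-aggregating sequences. Sequences with under 100 input reads were excluded. Reads came from Illumina sequencing of plasmid inserts from psi-negative yeast expressing Sup35N fused to peptides of 20 random codons, induced 24 hours with 100 μM copper sulfate and grown 7 days at 30°C without adenine and uracil.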

Substance	amyloid nucleation score
ITLCVNRLRFRVKLNHQSSF	inactive
YVQTLSNTECNAIANMHERF	0.641 ± 0.42
CRCFGRFLVITSI	inactive
FRLVYNNFAIT	-1.78 ± 2.4
KFIVWTFWSYLLTATRM	0.157 ± 0.79
RCLEGLSIMLNDFLPPCGP	-0.224 ± 0.71
LQDFGKHPTLRCTVYRLHRP	-1.02 ± 0.83
CRATTP	0.282 ± 0.49
VNNIVRSICGIKGEVRFLCG	0.094 ± 1.2
VGRTNFYCYWFPCRSLDLLS	5.8 ± 0.046
LLLLVRFYGSGSPHSGAEPI	-1.14 ± 1.5
RVCKYGCAKT	0.566 ± 0.34
ETTRNKAMNTFMLPFSQSCK	0.39 ± 0.56
QIIWVIRFLLVCVFTLSKLV	inactive
VFYKYRQGARYDFF	0.227 ± 0.89
NNSKFMWQLSNWSWYTWHYI	-0.392 ± 0.83
LGICLLCTDIWDRVGNLCSL	-0.041 ± 0.33
QTTFGLMIFT	0.89 ± 0.93
FGSARGHSGY	1.52 ± 0.18
TSYNIMFQ	-0.584 ± 1.2
ACSPSLVL	1.52 ± 0.84
SLLCCVLVFSFCFSPFRSSE	1.52 ± 0.16
CSENT	-0.875 ± 0.52
CVCLSVARLDYADIFVWTFM	2.28 ± 0.13
HFMWAYRCSDYDLM	2.01 ± 0.11

Substance	amyloid nucleation score
VCSQHGGWISGGKGSILARS	-0.417 ± 0.99
AVVMTLIVYALGYT	1.27 ± 0.3
QFYVSVFEIYSLLTRKCACR	inactive
GSLKEMEKHPWKKATTYQYA	1.47 ± 0.23
SWLIRLSLYWYVNWSCMVGV	-0.009 ± 0.45
AVCVEGQLANSGHRGTGNGN	0.257 ± 0.48
KHQSHFLVV	0.872 ± 0.45
RTCSKHYIWYKALIGFALGN	-0.27 ± 0.33
AFIFMSTATDDLFFAINL	-0.139 ± 0.35
CCQYSWSNVMSVRKLSAWLH	0.04 ± 0.34
KRFSKDLLMAESDLCIGCMM	-0.817 ± 2.4
QSTLGGSKHAWLIENGGFGF	-0.685 ± 1.1
SFLWYIGFNSWRFCGRYTTL	0.174 ± 0.5
RDYSFGGLMPGCDGEHIVS	-0.138 ± 0.4
RPYGPYALLWSISIYAWELL	0.508 ± 0.61
EPSLERRRRPSEMVGAKGWI	-0.374 ± 1.1
TVSVANSKWSDTVINMRLDR	5.72 ± 0.065
FSNDRCGFVAR	0.149 ± 0.26
PRMFIWMCDRDDVSMYQEFL	0.48 ± 0.55
NSMNLNG	inactive
LTVVTAAFRATMVEHIL	-0.368 ± 0.4
IYNLNVISSVCESTRCRQTA	7.08 ± 0.078
PRCFYLMSGEMISTYECKRT	1.05 ± 0.39
VYRTNLSINSTFIWTHELRS	0.525 ± 0.18
VVVIFLHGIWCGLRL	-0.208 ± 0.75

Substance	amyloid nucleation score
VCTCTLVVDSTLCLGSVGTA	2.04 ± 0.18
NLQSCLVYKVSVGNLPLIYL	-0.45 ± 1.2
CVLCKQRFTILMQRWLVRK	0.961 ± 0.61
LIEDHVLYHVRAKKYRSHYI	-0.381 ± 0.79
IRDRMLMCDGKRLNTLLEHI	0.145 ± 0.49
YMVLVDLRTGRIHGSAGEKR	-0.174 ± 0.5
THCCSRYTPERVC	0.47 ± 0.4
YANTTWSLTLTTVQHRNVAD	3.35 ± 0.16
RQDGYPRCIVRVILLECSLI	-0.321 ± 0.66
NGITLLGAVAFTVFLLYPRT	-0.215 ± 0.41
EIYGKCLNPIGL	0.53 ± 0.52
SVTLCKFRKT	-0.197 ± 0.37
QASIYCIIRE	0.68 ± 0.43
MRASTFNYSYELKINVVCYT	-0.918 ± 0.53
SLDYVSQFIQLLRFFKFYMV	inactive
FINGFGEDLKHIREVEVYLY	4.07 ± 0.084
MCIFICLPVTVYDNIFHSFL	6.22 ± 0.096
YSAALRHGQRHKWRSGRKIG	0.674 ± 1.2
AIQCSTARNDVECKLFTYVL	0.086 ± 0.71
LIVVVTLSGEHRFSVMVYRN	-0.001 ± 0.64
VWTSWDGRSLIAEWVCYLE	6.232 ± 0.048
YSADMFRADGLWFRGSRWG	0.308 ± 0.57
GKFSDSHIVA	0.308 ± 0.46
KLYGVSCAPLSEDHCLGKAA	-0.339 ± 0.48
RVNYDVLVHLMPGLWVRTRL	0.372 ± 1.4

Substance	amyloid nucleation score
VGFRGVLQIPGLSFPEALVR	0.024 ± 0.46
VSFRFLMGFVYVKCWSSSLD	1.38 ± 0.69
REPVCICLIAAYGRAKPPTG	0.382 ± 0.84
LQYAKRDDIDSDVLLYKMYG	0.203 ± 0.97
MDRDASYHGYIGHLLSWIGM	0.886 ± 1.1
LNNTVEDPA	0.892 ± 0.92
IKSVVLS	0.043 ± 0.63
FGVEYWWSLGCVWGTLLGYN	inactive
HRISASTLCVIMALRFTSWR	1.42 ± 0.44
ISSRRCVRED	inactive
FWIFRVLSINANTELSWDIV	-0.631 ± 0.32
RRHTLSFVTGFCVIGFYGGD	4.48 ± 0.063
WYPAANLRLVALIKGVSAVT	-2.23 ± 2.4
CHFSYSI	0.558 ± 1.1
HGLNVTLDVHGESYLHIYVW	-0.036 ± 0.62
DVYKKIFLRLNCYQVSMRIE	-0.697 ± 0.27
SVMFQECFVNEFIGVHRCRD	6.324 ± 0.047
LFCSLGSSPAYVNKWCVHLE	0.862 ± 0.45
SDAMSTHQRVNRF	0.369 ± 0.55
FLWDL	0.268 ± 0.75
FSSLMLLTGEYSLSIWCKRS	1 ± 0.8
EKSGAWSTVRRMISC	0.374 ± 0.23
LLSPFCVVLGSSTTGTMVNM	0.287 ± 0.62
IFDYSTLECESDEGEAEGMS	0.572 ± 0.81
NVRGSWVIMCYFTYVWMLGR	0.017 ± 0.35

Substance	amyloid nucleation score
WVSSAAGAAGPVIYWDVALY	-0.612 ± 0.39
QRMLHAYLCVNWAELTHIRV	0.034 ± 0.6
DANNIRLDDSFELRWCKNVC	-1.36 ± 0.91
YWIIKVRNRLVPRFFKYKGS	-0.491 ± 0.39
CLTGGYPNRKLNLTMMWCHW	inactive
VEEGNMRCSNLMTLEHTTHK	-0.582 ± 0.42
VRVFTHSSVGREE	-0.177 ± 0.25
FRRYLWFRDRPGFCCFRLMQ	-0.46 ± 1.5
TNPYSWNLYCGFLNTDWVV	0.787 ± 0.85
EVQSDSSEVRDTEYMDISSW	inactive
LELLSSWWYSSIYTGTDCVT	2.08 ± 0.25
DIIVFSVLFLVTLDGDLWC	0.476 ± 0.97
HSGQYCSAHPGFVK	-0.49 ± 0.5
QDFVMSYLCRLKGWLDKRYR	0.472 ± 0.25
VGRMPNGYVVGINIGLSRRL	-0.696 ± 1.7
WMAFWGWVLYYFSFHFTFNV	0.079 ± 0.48
TVLGQH	-0.058 ± 0.29
QSVHDTHSCHGSH	0.5 ± 0.63
FTVSRPIMYIVYNCLHSVCV	4.61 ± 0.049
FPDYVDTTFRQIWECLWFFP	inactive
VRSLAFTNVYFEEGAYVANT	-0.532 ± 0.73
YIHGGVMCKDPAPFSYFASI	-0.114 ± 0.59
FLGGDTRIDHGTLWWSLIRQ	0.032 ± 0.35
GSFHTQRTWAFVVVVEVHGK	0.232 ± 0.41
